From the supplement of paper PMC10724198 come the findings set out here.

± gives the standard deviation of the averaged measurements.
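Also: PSI is a weighted mean of sequencing reads over stability bins, variants kept only with over 10 reads, mCherry proximal and sfGFP distal, peptide attached via GGGS linker.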

The test system of this series is Saccharomyces cerevisiae. The series is described as follows: protein stability index of tFT-peptide fusion (C-terminal peptide) (PSI (0-1 scale)); higher = more stable (slower turnover). To be noted: genetic background: wild type; temperature: 30 C. How it is done:
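Multiplexed protein stability (MPS) profiling in S. cerevisiae. Random 12-aa peptides (tFT-X12 library) are fused to the C-terminus of a sfGFP-mCherry tandem fluorescent timer, after mCherry and a GGGS linker. Cells are FACS-sorted into 8 mCherry/sfGFP bins and deep-sequenced. The protein stability index (PSI) is the read-weighted bin average, scaled from 0 (unstable) to 1 (stable). Only peptides with >10 reads are reported; cells were grown at 30 °C in SC-His with glucose.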
DWEPGGGGRMVG had a protein stability index of 0.703 ± 0.081.
On to DWKLPRIEREST, for which the protein stability index is 0.678 ± 0.024.
DWVDFFQSVIWI returned a protein stability index of 0.761 ± 0.0079.
DWVYISAGGRYA came in with a protein stability index of 0.657 ± 0.017.
On to EAEEVGRVVLKG, for which the protein stability index was 0.643 ± 0.067.
EAERDEAQRRCA returned a protein stability index of 0.686 ± 0.0076.
To EAFARGAPNQTS belongs 0.804 ± 0.066.
To EALELALTWHCV belongs 0.7029 ± 0.0058; to EANEENNSSKRD, 0.686 ± 0.03; to ECGNYRGPYRTR, 0.678 ± 0.026.
The sequence ECRGGPGLGGGV returned a protein stability index of 0.635 ± 0.046.
To ECSFAGIWVDLG belongs 0.689 ± 0.047; to EDDQETPDTVQS, 0.66 ± 0.014; to EDHSCVFSAFCF, 0.663 ± 0.045.
Regarding EECGVIDIILGG, the protein stability index was found to be 0.679 ± 0.013.
Take EEKEKKEKDGRR: the protein stability index was 0.728 ± 0.042.
For EEKREERGDRGR the value was 0.579 ± 0.01.
For EEKRKRKSQNEI the value was 0.702 ± 0.045; for EELGGGTRNYEG, 0.693 ± 0.018; for EEMMGGAETLHQ, 0.649 ± 0.036.
Turning to EESKQKKKNEEE, the protein stability index was 0.676 ± 0.041.
Sequence EFDCVGCFRTLR returned a protein stability index of 0.6618 ± 0.0017.
To EFEDCGAWGNIG belongs 0.621 ± 0.039.
Take EFPRDLVFDWYG: the protein stability index was 0.857.
Sequence EFRCRGPWGLEE displayed a protein stability index of 0.761 ± 0.17.
With EFRQVDGRASRP, the protein stability index was determined as 0.701 ± 0.0049.
Turning to EGAGRRYRCGWG, the protein stability index is 0.698 ± 0.049.
For EGDIFSGFPSFQ the value was 0.741 ± 0.065; for EGEGGKRGEGKR, 0.624 ± 0.041.
With EGGETLLGAKGR, the protein stability index was 0.639 ± 0.013.
To EGGRGGVLMRGV belongs 0.727 ± 0.013; to EGGVRSRVRSRL, 0.863 ± 0.063; to EGKGKGRGEVKE, 0.6733 ± 0.0064.
As for EGKKEKKGSKGE, the protein stability index came out at 0.708 ± 0.052.
In turn, EGPVYKNIGTDV registered a protein stability index of 0.6823 ± 0.0013.
For EGRFRNGRAVSG the value was 0.673 ± 0.011; for EGRGSVVGSSEG, 0.633 ± 0.035; for EGVGLAETAGDD, 0.684 ± 0.039.
For EGVKSGDGGAGG the value was 0.63832 ± 0.00019.
In the case of EHHLSRLKSLLR, the protein stability index stood at 0.709 ± 0.058.
For EHIRPNMSSYAV, the protein stability index was found to be 0.728 ± 0.072.
As to EHKSPYGTLRFP, the protein stability index is 0.777 ± 0.11.
Regarding EIEFRLKLGTGV, the protein stability index came to 0.655 ± 0.04.
Sequence EIKKNQKRKFDG returned a protein stability index of 0.66 ± 0.041.
Turning to EIRGGYMGEWRE, the protein stability index came out at 0.691 ± 0.082.
For EIRIISGIDDRR, the protein stability index came out at 0.628 ± 0.077.
To EITRNKRRCARR belongs 0.674 ± 0.14.
To EKGRSGVNILRV belongs 0.653 ± 0.011.
With EKIERDKRKKVK, the protein stability index was 0.621 ± 0.0076.
To EKIKNKDYIEKT belongs 0.887 ± 0.094; to EKKDKKKRKEKG, 0.674 ± 0.028.
For EKKKKTKYKKKK the value was 0.735 ± 0.052.
For EKKKQKHKKKKN the value was 0.706 ± 0.031; for EKKNKKRNKKNK, 0.697 ± 0.058; for EKKRAGEDGRGK, 0.673 ± 0.0081.
Consider EKKRERRRERKE, for which the protein stability index turned out to be 0.65 ± 0.091.
The sequence EKLADTTKRRRV yielded a protein stability index of 0.724 ± 0.026.
For EKLKNTYLNRTE the value was 0.641 ± 0.023; for EKNDMKKKKNRQ, 0.713 ± 0.035; for EKSNQKSRRNSR, 0.638 ± 0.15.
In the case of ELDFFIGYGVFC, the protein stability index worked out at 0.626 ± 0.0082.
ELDRIRPHEQSH yielded a protein stability index of 0.723 ± 0.03.
For the sequence ELHPLPLPPPAV, the protein stability index was found to be 0.743 ± 0.013.
ELLASVSVSSRF registered a protein stability index of 0.6276 ± 0.0044.
